Laboratory results published in US20240190962A1.

Biological target: human IL-2 receptor (IL-2Rα, IL-2Rβ, IL-2Rγ) (human) (UniProt P01589)
Assay: cell-based or functional assay

Chain of human IL-2 receptor (IL-2Rα, IL-2Rβ, IL-2Rγ) (human) (P01589 22-272, chain 1 of 3): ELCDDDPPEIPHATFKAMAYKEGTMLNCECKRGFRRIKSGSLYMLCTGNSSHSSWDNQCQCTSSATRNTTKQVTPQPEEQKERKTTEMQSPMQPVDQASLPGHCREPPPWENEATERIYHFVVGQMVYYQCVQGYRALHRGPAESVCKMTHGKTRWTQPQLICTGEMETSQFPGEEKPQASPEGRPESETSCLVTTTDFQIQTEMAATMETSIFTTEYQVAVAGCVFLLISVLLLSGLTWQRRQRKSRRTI
Chain of human IL-2 receptor (IL-2Rα, IL-2Rβ, IL-2Rγ) (human) (P14784 27-551, chain 2 of 3, further chain): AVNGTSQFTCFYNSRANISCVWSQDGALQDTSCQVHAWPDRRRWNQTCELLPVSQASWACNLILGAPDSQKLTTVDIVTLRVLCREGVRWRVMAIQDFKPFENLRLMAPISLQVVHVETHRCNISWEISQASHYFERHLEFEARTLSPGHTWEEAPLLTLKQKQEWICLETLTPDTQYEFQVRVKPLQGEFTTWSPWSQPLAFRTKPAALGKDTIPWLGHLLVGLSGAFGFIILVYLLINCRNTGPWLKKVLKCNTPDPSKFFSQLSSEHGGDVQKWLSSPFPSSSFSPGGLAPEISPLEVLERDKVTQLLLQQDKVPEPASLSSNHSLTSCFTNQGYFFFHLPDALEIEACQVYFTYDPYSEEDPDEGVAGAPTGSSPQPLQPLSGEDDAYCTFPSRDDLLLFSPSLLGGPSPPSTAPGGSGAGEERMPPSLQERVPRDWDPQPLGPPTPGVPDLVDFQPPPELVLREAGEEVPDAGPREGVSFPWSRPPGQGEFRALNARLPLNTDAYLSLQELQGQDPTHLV
Chain of human IL-2 receptor (IL-2Rα, IL-2Rβ, IL-2Rγ) (human) (P31785 23-369, chain 3 of 3, further chain): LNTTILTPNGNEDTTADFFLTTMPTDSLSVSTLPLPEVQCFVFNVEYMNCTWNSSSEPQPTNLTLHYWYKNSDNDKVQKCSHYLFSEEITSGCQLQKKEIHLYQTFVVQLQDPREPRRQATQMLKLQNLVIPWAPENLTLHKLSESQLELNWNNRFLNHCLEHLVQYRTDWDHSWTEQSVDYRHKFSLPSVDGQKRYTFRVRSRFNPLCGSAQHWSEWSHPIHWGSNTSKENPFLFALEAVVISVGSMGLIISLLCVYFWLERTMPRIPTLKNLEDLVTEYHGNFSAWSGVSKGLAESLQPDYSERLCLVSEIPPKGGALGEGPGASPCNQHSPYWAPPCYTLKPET

Percent T-cell proliferation (PBMC proliferation assay): 52%
B1: Fab-Fc-IL-2 mutant-CD3 Ab (protein, part only; not given: constant regions and IL-2 junction, not shown: a dimerising Fc or GST)
light: EIVMTQSPGTLSLSPGESATLSCSASLSVSFMHWFQQKPGHAPRLLIYRTSNLASGVPDRFSGSGSGTDFTLTISRLEPEDFAVYYCQQRSSDPPTFGQGTRLEIKRTVAAPSVFIFPPSDEQLKSGTASVVCLLNNFYPREAKVQWKVDNALQSGNSQESVTEQDSKDSTYSLSSTLTLSKADYEKHKVYACEVTHQGLSSPVTKSFNRGEC
heavy, part 1: EVQLVESGGGLVQPGRSLRLSCTASGFTFSYFWMNWVRQAPGKGLEWVGEIRLRSDNYATHYAESVKGRFTISRDDSKSIAYLQMNSLKTEDTALYYCTRDWEFTYWGQGTTVTVSSAS
heavy, part 2: EVQLVESGGGLVQPGRSLRLSCTASGFTFSYFWMNWVRQAPGKGLEWVGEIRLRSDNYATHYAESVKGRFTISRDDSKSIAYLQMNSLKTEDTALYYCTRDWEFTYWGQGTTVTVSSASAPTSSSTKKTQLQLEHLLLDLQMILNGINNYKNPKLTDMLTFEFYMPKKATELKHLQCLERELKPLEEVLNLAQSKNFHLRPRDLISNINVIVLELKGSETTFMCEYADETATIVEFLNRWITFCQSIISTLT
